The target of experiment [1] is T. congolense fructose-1,6-bisphosphate aldolase, wild type (Trypanosoma congolense). In words: SEC; analytical SEC of 1 mg TcoALD mixed with Nb474 at Nb474:TcoALD ratios 1:4, 2:4, 3:4, 4:4, 6:4, incubated at least 1 h; Superdex 200 HR 10/30, 50 mM MES, 500 mM NaCl, pH 6.7; peaks analysed by SDS-PAGE.
Experiment [2] has the same target. In words: crystal structure; (Nb474-TcoALD)4 complex, His tags of both retained; 100 mM sodium cacodylate pH 6.5, 200 mM magnesium acetate, 10% PEG 8000, 20°C; 2.57 Å.
Experiment [3] shares this target. In words: SEC; analytical SEC of TcoALD alone; Superdex 200 HR 10/30, 50 mM MES, 500 mM NaCl, pH 6.7; calibrated with the Bio-Rad standard. (In gel filtration, larger molecules generally elute earlier.)
Experiment [4] concerns the target T. congolense fructose-1,6-bisphosphate aldolase A77E mutant (Trypanosoma congolense). Kind of experiment: SPR; SPR sandwich assay: immobilised Nb474 on CM5 saturated with a TcoALD variant, then Nb474 (0.5 nM to 1.0 uM) injected as second analyte; 20 mM HEPES, 150 mM NaCl, 0.005% Tween, 3.4 mM EDTA, pH 7.4; 1:1 Langmuir model for WT and A77E. Background: SPR reads the build-up and loss of mass on a sensor chip optically.

For the molecule “T. congolense fructose-1,6-bisphosphate aldolase, wild type (enzyme)”, the stoichiometry N – broadly, the number of molecules, sites or subunits per partner or assembly – was determined as 4 in experiment [1], 4 in experiment [2] and 2 in experiment [3].

B1: Nanobody Nb474, C-terminally His-tagged (VHH)
VHH: QVQLQESGGGLVQPGGSLRLSCAASETALTYYAIGWFRQAPGKEREGVSCISRINSGSGARTDYADSVKGRFTISRDDAKNTVTLQMNSLEPEDTARYYCALDTTDRYDSANGRYYCTISSDTYDYWGQGTQVTVSS
B1: in experiment [4], the Kd (commonly the concentration at which binding is half-saturated) turned out to be 0.067 nM; the koff (as a rule, the rate constant with which the complex falls apart) came out at 0.000141 s⁻¹; the kon – broadly, a measure of how fast the partners come together – turned out to be 2.11e+06 M⁻¹ s⁻¹. Further, the stoichiometry N (Nb474 per TcoALD monomer) in experiment [1] came out at 1.

Values taken from paper PMC5617235.
